Experimental findings from IntAct's records for PubMed 19361433 are described below.

B1: Probable ATP-dependent transporter SufC (Escherichia coli (strain K12)), P77499 (parent)
chain: MLSIKDLHVSVEDKAILRGLSLDVHPGEVHAIMGPNGSGKSTLSATLAGREDYEVTGGTVEFKGKDLLALSPEDRAGEGIFMAFQYPVEIPGVSNQFFLQTALNAVRSYRGQETLDRFDFQDLMEEKIALLKMPEDLLTRSVNVGFSGGEKKRNDILQMAVLEPELCILDESDSGLDIDALKVVADGVNSLRDGKRSFIIVTHYQRILDYIKPDYVHVLYQGRIVKSGDFTLVKQLEEQGYGWLTEQQ
partner: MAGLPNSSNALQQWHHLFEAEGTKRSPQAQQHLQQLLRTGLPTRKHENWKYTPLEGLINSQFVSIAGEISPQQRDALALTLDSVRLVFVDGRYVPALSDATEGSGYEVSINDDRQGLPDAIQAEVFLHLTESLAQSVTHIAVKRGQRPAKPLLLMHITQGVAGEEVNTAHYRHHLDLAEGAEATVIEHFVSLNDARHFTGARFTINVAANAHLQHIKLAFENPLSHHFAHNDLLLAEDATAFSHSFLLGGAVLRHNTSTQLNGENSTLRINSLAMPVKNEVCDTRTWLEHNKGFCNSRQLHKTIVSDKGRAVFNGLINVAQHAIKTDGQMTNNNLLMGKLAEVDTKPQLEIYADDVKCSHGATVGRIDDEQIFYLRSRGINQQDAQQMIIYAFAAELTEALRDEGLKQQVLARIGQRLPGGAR

This experiment covers variants of B1. Conditions: with sufd_ecoli sufD.
Turning to Y86C, the “effect of a mutation on the interaction” value is given as “increasing interaction”.
